In US20220057415A1, “METHOD FOR DETECTING ALLERGIC DISEASES” (The University of Tokyo, priority 2018, published 2022):

Assays:
BALB/C mice [1] = assay: Measurement of nasal cavity volume by computed tomography; format: in vivo
Description: To 23 BALB/C mice (female, 5 weeks old) (CLEA Japan, Inc., the same applies hereinafter), 50 μg of ovalbumin (manufactured by Sigma, sometimes abbreviated as “OVA” herein) dissolved and diluted with physiological saline (manufactured by Otsuka Pharmaceutical Co., Ltd.) and 1 mg of aluminum potassium sulfate (manufactured by Sigma-Aldrich Co. LLC.) were intraperitoneally administered simultaneously, and, after two weeks, 50 μg of OVA was intraperitoneally administered again for sensitization. […]
The nasal cavity volume of the AR model mice prepared in Example 1 was measured by computed tomography before the administration of OVA (6 mice), 24 hours after the fifth administration of OVA (6 mice), and 24 hours after the tenth administration of OVA (6 mice). As a control, the nasal cavity volume of the solvent-administered group prepared in Example 1 was measured in the same manner as above before the administration of the solvent (6 mice), 24 hours after the fifth administration of the solvent (6 mice), and 24 hours after the tenth administration of the solvent (6 mice). […] From the captured image, regions having a CT value of −900 to −300 HU (Hounsfield unit) were decided as the nasal cavities, and their volume was measured.

BALB/C mice [2] = assay: Histopathological count of immunocytes infiltrated into nasal turbinates; format: in vivo
Description: Specifically, the maxilla was excised from the mice and immediately immersed in 4% paraformaldehyde at 4° C. for 5 days. Then, it was immersed in EDTA every day and decalcified at 4° C. for 10 days. Next, the bone covering the orbit was excised with a razor, dehydrated and cleared, and then embedded in paraffin to prepare continuous section specimens having a width of 4 μm. Hematoxylin-eosin staining (HE staining), chloroacetate-esterase staining (CAE staining), toluidine blue staining (TB staining) or May-Grünwald Giemsa staining (MG staining) was performed according to a conventional method for encapsulation. Specific staining procedures are as will be described below. The stained nasal cavity tissue was observed under an optical microscope (ACT-10, manufactured by Nikon Corporation), and imaged using a digital microscope camera (OPTIPHOT-2, manufactured by Nikon Corporation). The number of immunocytes (connective tissue type mast cells, mucosal type mast cells, eosinophils and neutrophils) in the nasal turbinates (sites where inflammatory cells infiltrate when rhinitis occurs and where many capillaries gather) was counted within 16 to 24 randomly selected areas (magnification: ×400) per section. CAE staining is a staining method in which mast cell-specific esterase is stained red using naphthol AS-D chloroacetate as a substrate. The continuous section specimens prepared in the above item (1) were deparaffinized and used for staining. A 4% sodium nitrite solution and a new fuchsin solution were mixed at a ratio of 1:1, and then this solution and a naphthol solution were mixed at a ratio of 1:9. This solution and phosphate buffer (0.2M NaH2PO4, 0.2M Na2HPO4, pH 7.6) were mixed at a ratio of 1:20, and the sections were immersed for 10 minutes. The sections were washed with distilled water and then counterstained with a hematoxylin solution. The total number of the mast cells (connective tissue type mast cells and mucosal type mast cells) present in the connective tissue and mucosal tissue within 1 mm^2 was counted to calculate the mean value and standard deviation. TB staining stains acidic mucous polysaccharides. Acidic mucous polysaccharides are present in the connective tissue type mast cells and absent in the mucosal type mast cells. The continuous section specimens prepared in the above item (1) were deparaffinized and then immersed in a 0.05% toluidine blue solution (pH: 4.1) for 10 minutes. Then, they were decolorized with a 90% alcohol solution and then encapsulated. CAE staining stains both the connective tissue type mast cells and the mucosal type mast cells, whereas TB staining stains only the connective tissue type mast cells. CAE staining and TB staining were performed on different sections, and cells positive for CAE staining and positive for TB staining were decided as connective tissue type mast cells. Also, cells positive for CAE staining and negative for TB staining were decided as mucosal type mast cells. The total number of the connective tissue mast cells or mucosal type mast cells present in the connective tissue and mucosal tissue within 1 mm^2 was counted to calculate the mean value and standard deviation. May-Grünwald Giemsa staining stains eosinophil-specific eosinophilic granules red. The continuous section specimens prepared in the above item (1) were deparaffinized and then immersed in a May-Grünwald staining solution for 6 minutes. Then, the sections were washed with 1/15 M-phosphate buffer (×10) (0.2M NaH2PO4, 0.2M Na2HPO4, pH 6.4 to 6.8). Thereafter, the sections were immersed for 3 minutes in a solution obtained by mixing a Giemsa staining solution and distilled water at a ratio of 1:20. HE staining and MG staining were performed on different sections, and cells confirmed to have a multilobed nucleus by HE staining and positive for MG staining were decided as eosinophils. Also, cells have a multilobed nucleus by HE staining and negative for MG staining were decided as neutrophils. […]

[3] = tested on: ovalbumin-specific IgE in serum; assay: Ovalbumin-specific IgE level in serum (ELISA); format: in vivo, BALB/C mice; details: OVA-sensitized mice (two i.p. sensitizations, not stimulated with OVA); not detected in unsensitized group; mean±SD
Description: (§1) To 23 BALB/C mice (female, 5 weeks old) (CLEA Japan, Inc., the same applies hereinafter), 50 μg of ovalbumin (manufactured by Sigma, sometimes abbreviated as “OVA” herein) dissolved and diluted with physiological saline (manufactured by Otsuka Pharmaceutical Co., Ltd.) and 1 mg of aluminum potassium sulfate (manufactured by Sigma-Aldrich Co. LLC.) were intraperitoneally administered simultaneously, and, after two weeks, 50 μg of OVA was intraperitoneally administered again for sensitization. Two weeks after the second sensitization, OVA (400 μg/10 μL) was transnasally administered once daily for 5 days (5 times, in total) or 10 days (10 times, in total) for stimulation, thereby preparing allergic rhinitis (sometimes abbreviated as “AR” herein) model mice. […]
Antigen sensitization is known to increase the antigen-specific IgE value in serum. To confirm the ovalbumin sensitization of the allergic rhinitis model mice prepared in Example 1 (1), the ovalbumin-specific IgE level in serum was measured. […] The freeze-preserved serum was diluted 25 times, and then the IgE level was measured using Anti-Ovalbumin IgE (mouse) ELISA Kit (manufactured by Cayman Chemical Company) according to the instructions attached to the kit.

BALB/C mice [4] = assay: Evaluation of sneezing symptom; format: in vivo
Description: as §1
For the AR model mice (22 mice) and solvent-administered group (10 mice) prepared in Example 1, the numbers of sneezes for a period of 10 minutes from 1 minute to 11 minutes after each of the first to tenth administrations of OVA or the solvent were counted. For the upper respiratory inflammation model mice (9 mice) and single-time solvent-administered group (6 mice) prepared in Example 1, the numbers of sneezes were counted hourly after the administration of LPS or the solvent (until 10 hours later).

[5] = 10-time OVA-administered group vs 10-time solvent-administered group

B1: OVA: ovalbumin (manufactured by Sigma), antigen used for sensitization and stimulation of the allergy models (protein, UniProt P01012 2-386, looked up)
Ovalbumin: GSIGAASMEFCFDVFKELKVHHANENIFYCPIAIMSALAMVYLGAKDSTRTQINKVVRFDKLPGFGDSIEAQCGTSVNVHSSLRDILNQITKPNDVYSFSLASRLYAEERYPILPEYLQCVKELYRGGLEPINFQTAADQARELINSWVESQTNGIIRNVLQPSSVDSQTAMVLVNAIVFKGLWEKAFKDEDTQAMPFRVTEQESKPVQMMYQIGLFRVASMASEKMKILELPFASGTMSMLVLLPDEVSGLEQLESIINFEKLTEWTSSNVMEERKIKVYLPRMKMEEKYNLTSVLMAMGITDVFSSSANLSGISSAESLKISQAVHAAHAEINEAGREVVGSAEAGVDAASVSEEFRADHPFLFCIKHIATNAVLFFGRCVSP
nasal cavity volume (BALB/C mice [1]; 5-time OVA-administered group, 24 hours after fifth administration): decreased
nasal cavity volume (BALB/C mice [1]; 10-time OVA-administered group, compared with before the administration of OVA): significantly decreased
number of eosinophils infiltrated into the nasal turbinates (BALB/C mice [2]; 5-time OVA-administered group vs 10-time solvent-administered group): significant increase
number of infiltrated eosinophils (BALB/C mice [2]; 5-time OVA-administered group vs LPS-administered group): significantly increased
number of mucosal type mast cells infiltrated into the nasal turbinates (BALB/C mice [2]; 5-time OVA-administered group, solvent-administered groups and LPS-administered group compared): no significant difference
number of infiltrated eosinophils (BALB/C mice [2]; 10-time OVA-administered group vs 5-time OVA-administered group): significantly increased
number of eosinophils infiltrated into the nasal turbinates (BALB/C mice [2]; [5]): significant increase
number of mucosal type mast cells infiltrated into the nasal turbinates (BALB/C mice [2]; [5]): significant increase
number of neutrophils infiltrated into the nasal turbinate (BALB/C mice [2]; OVA-administered groups (5 and 10 times) and solvent-administered groups): no significant difference
number of connective tissue type mast cells infiltrated into the nasal turbinates (BALB/C mice [2]; OVA-administered groups (5 and 10 times), solvent-administered groups and LPS-administered group compared): no significant difference
serum ovalbumin-specific IgE [3]: 23 ± 6.29 ng/mL
frequency of sneezing (BALB/C mice [4]; allergic rhinitis model mice, from the first transnasal administration of OVA): observed to increase
number of sneezes for 10 minutes after administration (BALB/C mice [4]; fifth administration of OVA, compared with solvent-administered group, maintained until tenth administration): significantly increased
